This note sets out measurements from article doi:10.1101/2021.08.20.457118 (bioRxiv, 2021).

In this experiment the target is linear di-Ub (M1-linear from UbiQ) (UniProt P0CG47). Briefly: SPR.

B1: His-tagged Ufd2p (enzyme)
chain: MTAIEDILQITTDPSDTRGYSLLKSEEVPQGSTLGVDFIDTLLLYQLTENEKLDKPFEYLNDCFRRNQQQKRITKNKPNAESLHSTFQEIDRLVIGYGVVALQIENFCMNGAFINYITGIVSNVNSYTDFLSQIIQRAILEGTALDLLNAVFPTLLEYCNKHVSHFDLNESVIYNNVLTIFELFVTFKPIAEIFTKIDGFFADYSCKPQDFERKTILGPILSLSPIEAAVAIRNYGDNLLRSKQQTAMIHESLQAEHKVVIDRLFFIVDKLVRGSLNSRTDMISYFAHIANKNHLRRADHPPFKELSSNGFMSNITLLLVRFSQPFLDISYKKIDKIDANYFNNPSLFIDLSGETRLNSDFKEADAFYDKNRKTADSKPNFISDCFFLTLTYLHYGLGGTLSFEEKMGSEIKALKEEIEKVKKIAANHDVFARFITAQLSKMEKALKTTESLRFALQGFFAHRSLQLEVFDFICGASTFLIRVVDPEHEFPFKQIKLPLIPDQIGVENVDNADFLRAHAPVPFKYYPEFVVEGPVNYSLYISKYQTSPIFRNPRLGSFVEFTTMVLRCPELVSNPHLKGKLVQLLSVGAMPLTDNSPGFMMDIFEHDELVNKNLLYALLDFYVIVEKTGSSSQFYDKFNSRYSISIILEELYYKIPSYKNQLIWQSQNNADFFVRFVARMLNDLTFLLDEGLSNLAEVHNIQNELDNRARGAPPTREEEDKELQTRLASASRQAKSSCGLADKSMKLFEIYSKDIPAAFVTPEIVYRLASMLNYNLESLVGPKCGELKVKDPQSYSFNPKDLLKALTTVYINLSEQSEFISAVAKDERSFNRNLFVRAVDILGRKTGLASPEFIEKLLNFANKAEEQRKADEEEDLEYGDVPDEFLDPLMYTIMKDPVILPASKMNIDRSTIKAHLLSDSTDPFNRMPLKLEDVTPNEELRQKILCFKKQKKEEAKHKASE
With B1, the binding result was “binds”.
